Measured values: paper PMC11374677 (Nature, 2024)

Biological target: SARS-CoV-2 non-structural protein 3 (nsp3), TwinStrep-EGFP tagged, wild type (SARS-CoV-2 (Wuhan-Hu-1), UniProt P0DTD1)
Assay: […]

B1: SARS-CoV-2 non-structural protein 4 (nsp4), wild type (natural protein)
chain: KIVNNWLKQLIKVTLVFLFVAAIFYLITPVHVMSKHTDFSSEIIGYKAIDGGVTRDIASTDTCFANKHADFDTWFSQRGGSYTNDKACPLIAAVITREVGFVVPGLPGTILRTTNGDFLHFLPRVFSAVGNICYTPSKLIEYTDFATSACVLAAECTIFKDASGKPVPYCYDTNVLEGSVAYESLRPDTRYVLMDGSIIQFPNTYLEGSVRVVTTFDSEYCRHGTCERSEAGVCVSTSGRWVLNNDYYRSLPGVFCGVDAVNLLTNMFTPLIQPIGALDISASIVAGGIVAIVVTCLAYYFMRFRRAFGEYSHVVAFNTLLFLMSFTVLCLTPVYSFLPGVYSVIYLYLTFYLTNDVSFLAHIQWMVMFTPLVPFWITIAYIICISTKHFYWFFSNYLKRRVVFNGVSFSTFEEAALCTFLLNKEMYLKLRSDVLLPLTQYNRYLALYNKYKYFSGAMDTTSYREAACCHLAKALNDFSNSGSDVLYQPPQTSITSAVLQ
stoichiometry N: 1 ratio nsp4:nsp3 (12:12 in the complex)
